For this assay, the target named is TX/50 cell-version rHA1 (A/Texas/50/2012(H3N2) HA1) (Influenza A virus …, UniProt R4L1D1, strain). Briefly: BLI. The conditions noted are these: one partner purified.

Experimental findings from PMC12669751, “Immunodominant antibodies against hemagglutinin in ferrets following infection with 2018 to 2019 influenza vaccine strains” (NPJ Vaccines, 2025) are described below.

B1: monoclonal antibody FluA-20 (antibody, V domains shown)
VH: QVQLEESGPGLVKPSETLSLTCSVSGVSVTSDIYYWTWIRQPPGKGLEWIGYIFYNGDTNYNPSLKSRVTMSIDTSKNEFSLRLTSVTAADTAVYFCARGTEDLGYCSSGSCPNHWGQGTLVTVSS
VL: DIVMTQSPSSLSASIGDRVTITCRPSQNIRSFLNWFQHKPGKAPKLLIYAASNLQSGVPSRFSGSGSGTEFTLTIRSLQPEDFATYYCQQSYNTPPTFGQGTKVEIK
notes: also called FluA-20 mAb; pan-H3 anti-HA1 mAb; copies: 2 + 2
Regarding B1, the binding result was “binds”.
